{"source": "the nanobody polyreactivity screen of Harvey et al. (2022)", "data": [{"experiment": "yeast display, Sf9 membrane polyspecificity reagent, FACS + sequencing; frameworks hold sequencing errors", "method_in_brief": "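Nanobodies came from a synthetic yeast display library in Saccharomyces cerevisiae BJ5465, induced with galactose for 36–48 hours and stained for 1 hour at 4 °C with 10% biotinylated, detergent-solubilized Sf9 membrane reagent. Cells were enriched on streptavidin microbeads and then FACS-sorted, with low and high (top ~1%) gates set on anti-HA fluorescence for expression and streptavidin fluorescence for reagent binding. Each polyreactivity label reflects the gate a clone came from. Genes were amplified by colony PCR, sequenced by MiSeq 2 × 250 and filtered by CDR length.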", "values": [{"sequence": "QVQLVESGGGLVQAGGSHRLSCAASGRTFYFYTMGWYRPAPGKESELVATIRWSAGSTYYADSVKGRFTISRDNAKNTVYLQMNSLKPEDTAVYYCNADPYVYSSWEYGYWGLGTQVTVSS", "polyreactivity (PSR sort gate)": "high polyreactivity"}, {"sequence": "QVQLVESGGGLVQAGGSLRLSCAASGSTFTTYDMGWYRQAPGKERELVAGITGSGTSTFYADSVKGRFTISRDNAKNTVYLQMKSLKPEDTAVYYCATDWYTPEEYVTGAIEEYYWGQGTLVTVSS", "polyreactivity (PSR sort gate)": "low polyreactivity"}, {"sequence": "QVQLVESGGCLVQAGGSLRLSCAASGSTFRFYAMGWYRQAPGKERELVATISSSGGTTYYADSVKGRFTISRDNAKNTVYLQMNSLKPEDTAVSYCAKDAFGWGRVYYYRSGYWGHGTQVTVSS", "polyreactivity (PSR sort gate)": "high polyreactivity"}, {"sequence": "QVQLVESGVGLVQAGGSLRLSCAASGFTISYYTIGWSRQAPGKDRELVAAISSTGVSTYYADSVKGRFTISRDTAKNTVYLPLNSLKPEDTSVYYCAADYYGVYEYYYWGQGTQVTVSS", "polyreactivity (PSR sort gate)": "high polyreactivity"}, {"sequence": "QVQLVESGGGLVQAGGSLGLSCAASGRTFYRNAMGWYRQAPGIERELVAPITNGGRTYYADSVKGRFTISRDNAKNTVNLQMNSLKPEDTAVYYCNALDAKLSEYEYWGQGTEVTVSS", "polyreactivity (PSR sort gate)": "low polyreactivity"}, {"sequence": "QVQLVESGGGLVQAGGRLRLSCAASGRIFGFNAMGWYRQAPGKERELVAAIDGNDASTFYADSGKGRFTISRDNAKNTDYFQMNSLKPEDTAVYYCAAESSYVYLGWREYWGQGTQVTVSS", "polyreactivity (PSR sort gate)": "high polyreactivity"}, {"sequence": "QVQLVESGGGLVQAGGSLRLSCAASGRTFPYYAMGWYRQAPGKERELVAVISSADSTNYADSVKGRFTISRDNAKNTVYLQMNSLKPEDTAVYYCAADAVYYGDDYWGQCTQVTVSS", "polyreactivity (PSR sort gate)": "low polyreactivity"}, {"sequence": "QVQLVESGGGLVQAGGSLRLSCAASGSIFAYNAMGWYRQAPGKERELVAAISSGGRTKYADSVKGRFTISRDNAKNTVYLQMNSLKPEDTAVYYCAAESYTGKYSWVWKWYDYWGQGTQVTVSS", "polyreactivity (PSR sort gate)": "low polyreactivity"}, {"sequence": "QVHLVESGGGLVQAGGSLRISCAASGFTFRKYSMGWYRQAPGKERELVAGITSGGSTNNADSVKGRFTISRDNAKNTVYLQMNSLKPEDTAVYYCNAARYYAYIGDYWGQCTQVTVSS", "polyreactivity (PSR sort gate)": "high polyreactivity"}, {"sequence": "QVQLVESRGGLVQAGGSLRLSCDASGSTIFENVMGWYRQAPGKEREFVAAINTSGGSTYYADSVKGRFTISRDNAKNTVYLQMNSLKPEDTAVYYCARDSYWEMDYWGQGTQVTVSS", "polyreactivity (PSR sort gate)": "low polyreactivity"}, {"sequence": "QVQHVESGGGLVQAGGSLRLRCAASGRTFKKYAMGWYRQAPGKAWELVAAITGSGGSTYYADSVKGRFTFSRDNAKNTVYLQMNRLKPEDTAVYYCAAYAYGVWQSQDGGNYWGQGTQVTVSS", "polyreactivity (PSR sort gate)": "low polyreactivity"}, {"sequence": "QVQLVESGGGLVQAGGSLRLSCAASGRTFSYYAMGWYRQAPGKERELVAAISRSGVTTHYADSVKGRFTISRDNAKNTVYLQMNSLKTEDTAVYYCNKVYYYVGTLDYWGQGTQVTVSS", "polyreactivity (PSR sort gate)": "high polyreactivity"}, {"sequence": "QVQLVESVGGLVQAGGSLRLSCAASGRIFPAYAMGWYRQAPGKERELVASIRRGGITYADSVKGRFTISRDNAKNTVYLQMKSLKPEDTAVYYCNADYRGWGYHMDYWGQGTQVTVSS", "polyreactivity (PSR sort gate)": "low polyreactivity"}, {"sequence": "QVQLVESGGGLVQAGGSLRLSCAASGSIFEEYAMGWYRHAPGKERELVARIDESGGSTYYADSVKGRFTISRDNAKNTVYLQMNSLKPEDTAVYYCAAERYSDSWGYYSVDEGSWEMDYWGQGTQVTVSS", "polyreactivity (PSR sort gate)": "low polyreactivity"}, {"sequence": "QVQLVESGGGLVQAGGSLRLSCAASGYTFQWYDMGWYRQAPGKERELVASISWRGGSTYYADSVKGRFSISRDNATITVSLQMNSLKPEDTAVYYCAASLWPDYEYDYWGQGTQVTVSS", "polyreactivity (PSR sort gate)": "low polyreactivity"}, {"sequence": "QVQLVESGGGLVQAGGSLRLSCAASGSIFSINAMGWYRQAPGKERELVAAISASGGSTYYADSVKGRFTISRDNAKNTVYLQMNSLKPEDTAVYYCAAEGSPTGYDYWGQGTQVTVSS", "polyreactivity (PSR sort gate)": "low polyreactivity"}, {"sequence": "QVQLVESGGGLVQAGGSLRISCAASGFTSTYYAMGWYRPAPGTERELVAAITSSGTRTYYADSVKGRFTISRDIAKKTGYLQMNSLKPEDTAVYYCNASHRKGMYYWGLGTQVTVSS", "polyreactivity (PSR sort gate)": "high polyreactivity"}, {"sequence": "QVQLVESGGGLVQAGGSLRLSCAASGRTFAIYAMGWYRQAPGKERELVAAIRKRGSITYYADSVKGRFTISRDNAKNTVYLQMNSLKPEDTAVYYCAVDYWGQGTQVTVSS", "polyreactivity (PSR sort gate)": "high polyreactivity"}, {"sequence": "QVQLVDSGGGLVQAGGSLRLICAASGSTLGQYAMGWYRQAPGKERELVAAITARTGRTYYADSVKGRFTISRDNAKNTVYLQMNSMKPEDTAVYYCASVTFSYQDYYWGQGTQVTVSS", "polyreactivity (PSR sort gate)": "high polyreactivity"}, {"sequence": "QVQLVESGGGLVQAGGRLRLSCAASGIVFKRYAKGWYRQAPGKEREFVATISYTGGRTYYADSVKGRFTISRDTAKNTVYLQMNSLKPEDTAVYYCATLYRSSKHQPLDYWGQGTQVTVSS", "polyreactivity (PSR sort gate)": "high polyreactivity"}, {"sequence": "QVQLVESGGGLVQAGGSLRLSCAASGSIFQIYAMGWYRQAPGKERELAAAINSGGITKYADSVKGRFTISRDNAKNTVYLQMNSLKPEDTAVYYCAKRYGWPYGRFDYWGQGTQVTVSS", "polyreactivity (PSR sort gate)": "low polyreactivity"}, {"sequence": "QVQLVESGGGLVQAGGSLRLSCAASGSTFFKNAMGWYRQAPGKERELVAAISTGGGSTTYADSVKGRFTISRDNAKNTVYLQMNSLKPEDTAVYYCAAVTLSSTYGGHDYWGQGTQVTVSS", "polyreactivity (PSR sort gate)": "high polyreactivity"}, {"sequence": "QVQLVESGGGLVQAGGSLRLSCAASGFIFRYYAMGWYRQAPGKERELVAAISSSGGSTRYADSVKGRFTISRDNAKNTVYLQMNSLKPEDTAVYYCAARRWRGRYWGDYWGQGTQVTVSS", "polyreactivity (PSR sort gate)": "high polyreactivity"}, {"sequence": "QLQLVESGGGLVQAGGSLRLSCAASGRTFDSYAMGWYRQPPGKERELVAAIYADSVKGRFTISRDIAKNTVYLQMYSLTPEDSAVYYCAAETYSGQTYLGEYDYWGQGTQVTVSS", "polyreactivity (PSR sort gate)": "low polyreactivity"}, {"sequence": "QVQLVESGGGLVQAGGSLRLSCAASGSTFYFYAMGWYRQAPGKERELVAAISQSGGTTYYADSVKGRFTISRDNAKNTVFLQMNSLKPEDTAVYYCNADTDTWYTEYDYWGQGTQVTVSS", "polyreactivity (PSR sort gate)": "low polyreactivity"}, {"sequence": "QVQLVESGGGLVQAGGSLRLSCAASGYIFYSCAMGWYRQAPGKERELVATISSGGSTYYSDSVKGRFTISRDNAKNTVYLQMNSLKPEDTAVYYCNAKMYKPPFDYWGQGTQVTVSS", "polyreactivity (PSR sort gate)": "low polyreactivity"}, {"sequence": "QVQLVESGGGLVQAGGSLRLSCAASGNIFPIYPMGWYRQAPGKERELVASIYRGGTTYYADSVKGRFTISRDNAKNTVYLQMNSLKPEETAVYYCAVYSPRLRRVHTRGYWGQGTQVTVSS", "polyreactivity (PSR sort gate)": "high polyreactivity"}, {"sequence": "QFQLVESGGGLVQAGGSLRLSCAASGRIFPLYVMGWYRQAPGKERELVAAMSRSGSRTYYADSVKGRFTISRDNAKNTVYFQMNSLKPEDTAVYYCAAVPDGTTRYDGDYWGQGTQVTVSS", "polyreactivity (PSR sort gate)": "high polyreactivity"}, {"sequence": "QVQLVESGGGLVQAGGSLRLSCAASGFTFSLYGMGWYRQAPGKERELVAAIRSGGSTNYADSVKGRFTISRDNAKNTVYLQMNSLKPEDTAVYYCATDIHSVHNNRDKHDYDYWGQGTQVTVSS", "polyreactivity (PSR sort gate)": "low polyreactivity"}, {"sequence": "QVQLVESGGGLVQAGGSLRLSCAASGFIFYTYVMGWYRQAPGKERELVAAISGTGGRTYYADSVKGRFTISRDNAKNTVYLQMNSLKPEDTAVYYCAAVSRYATGGGYWGQGTQVTVSS", "polyreactivity (PSR sort gate)": "high polyreactivity"}, {"sequence": "QVQLVESGGGLVQAGGSLRLSCAASGSTSRYNVMGWYRQAPGKERELVAAISSRGVSTYYADSVKGRFTISRDNAKKTVYLQMNSLKPEDTAVYYCAARYGGPSHYGYWGQGTQVTVSS", "polyreactivity (PSR sort gate)": "high polyreactivity"}, {"sequence": "QVQLVESGGGLVQAGGSLRLSCAASGNILSPYTMGWYRQAPGKERELVAGISRSGGTTYYADSVKGRFTLSRDNAKTTVYLQINSLKTEDTAVYYCASGLIYGYSGYDSWGQGTQVTVSS", "polyreactivity (PSR sort gate)": "low polyreactivity"}, {"sequence": "KVQLVESGGGLVQAGGSLRLSCDASGSTFQYYTMGWYRQAPGKESELVAAISADGGNTYYADSVKGRFTISRDNAKNTVYLQMNSLKPEDTAVYYCNADVSLTLRTLVPGRAYDYWGQGTQVTVSS", "polyreactivity (PSR sort gate)": "low polyreactivity"}, {"sequence": "QVQLVESGGGLVQAGGSLRLSCAASGFTFWTYAMGWYRQAPGKERELVATISKRGGSTYYADSVKGRFTISRDNAMNTVYLQMNSLKPEVTAVYYCNRPSYGKEMDYWGQGTQVTVSS", "polyreactivity (PSR sort gate)": "high polyreactivity"}, {"sequence": "QVQLVESGGGLVQAGGSLRLSCAASGSIFYPYAMGWYRQAPGKERELVADINSDGSTTYADSVKGRFTISRDNAKNTVYLQMNSLKPEDTAVYYCAVDVSVNWPLLERYEYWGQGTQVTVSS", "polyreactivity (PSR sort gate)": "low polyreactivity"}, {"sequence": "QVQLVESGGGLVQAGGSLRLSCAASGSTFYYAMGWYRQAPGKERELVASITFSTGSTYYADSVKGRFTISRDNAKNTVYLQMTSLKPEDTAVYYCATGVDTYSLTVEHDSWGQGTQVTVSS", "polyreactivity (PSR sort gate)": "low polyreactivity"}, {"sequence": "QVQLQESGGGLVQAGGSLRLSCAASGTISVAAYMAWYRQAPGKEREYVASIGYGATTYYADSEKGTFTISRDNAKNTVYLQMNSLKPGDTAVYYCAVDRSPQYRYLYYWGQGTQVTVCS", "polyreactivity (PSR sort gate)": "high polyreactivity"}, {"sequence": "QVQLVESGGGLVQAGGSLRLSCAASGYIFLYNAMGWYRQAPGKERELVAAIRAIGGRTYYADSVKGRFTISRDNAKNTVYLQMNSLKPEDTAVYYCNARGQRRRSTGLRYIYDYWGQGTQVTVSS", "polyreactivity (PSR sort gate)": "high polyreactivity"}, {"sequence": "QVQLVESGGGLVQAGGSLRLSCAASGRIFYYNAMGWYRQAPGKERDLVAAITYSGTSTYYADSVKGRFTISRDNAKNTVYLQINSLKPEDTAVYYCAVDSTDQAPPTYDYWGQGTQVTVSS", "polyreactivity (PSR sort gate)": "low polyreactivity"}, {"sequence": "QVQLEESGGGLVQAGGSLRLSCAASGIIIVRNAMGWYRQAPGKEREFVAAISSSGGSTYYADSVKGRFTISRDNGKNTVYLQMNSLNPEDTAVYNCNARHRQWARGYWGQGTQVTVSS", "polyreactivity (PSR sort gate)": "high polyreactivity"}, {"sequence": "QVQLEESGGGLVQAGGSLRLSCAASGIIFGRYAMGWYRQAPGKQRELVAAITSGGSTSYADSVKGRFTISRDNAKNTVYLQMNSLKPEDTAVYYCAVVFVWGWPGYYWGQGTQVTVSS", "polyreactivity (PSR sort gate)": "high polyreactivity"}, {"sequence": "QVQLVESGGGLVQAGGSLRLSCAASGSTFPYYAMGWYRQAPGKERELVAAISSSGGSTYYADSVKGRFTFSRDNAKNTVYLLMNSLKPEDTAVYYCNVVKSRGLFSYDYWGQGSQVTVSS", "polyreactivity (PSR sort gate)": "high polyreactivity"}, {"sequence": "QVQLVESGGGLVQAGGSLRLSCAASGRIFTSNAMGWYRQAPGKERELVAAISGSGGRTYYADSVKGRFTISRDNAKNTVYLQMNSLKPEDTAVYYCAVGTRVKYDYWGQGTQVTVSS", "polyreactivity (PSR sort gate)": "high polyreactivity"}]}]}
